Results: doi:10.1101/2022.08.24.505078, “Cyclic AMP competitively inhibits periplasmic phosphatases to coordinate nutritional growth with competence development of Haemophilus influenzae” (bioRxiv, 2022)

B1: AphAEc-His6 (periplasmic acid phosphatase AphA of E. coli, signal peptide removed, C-terminal six-histidine tag) (enzyme, UniProt P0AE22 26-237, looked up)
chain: SSPSPLNPGTNVARLAEQAPIHWVSVAQIENSLAGRPPMAVGFDIDDTVLFSSPGFWRGKKTFSPESEDYLKNPVFWEKMNNGWDEFSIPKEVARQLIDMHVRRGDAIFFVTGRSPTKTETVSKTLADNFHIPATNMNPVIFAGDKPGQNTKSQWLQDKNIRIFYGDSDNDITAARDVGARGIRILRASNSTYKPLPQAGAFGEEVIVNSEY
notes: AphA, non-specific periplasmic acid phosphatase of E. coli, with the N-terminal signal peptide removed; also called AphA-His6; Ct His6 tagged AphAEc; source: E. coli, purified (Ni-NTA, size exclusion chromatography on Superdex 200 Increase); not shown: His6, C-terminal, kept
B2: His6-AphAEc (periplasmic acid phosphatase AphA of E. coli, signal peptide removed, N-terminal six-histidine tag) (enzyme, UniProt P0AE22 26-237, looked up)
chain: B1 chain
notes: AphA, non-specific periplasmic acid phosphatase of E. coli, with the N-terminal signal peptide removed; also called Nt His6 tagged AphAEc; source: E. coli, purified (Ni-NTA, size exclusion chromatography on Superdex 200 Increase); not shown: His6, N-terminal, kept
B3: tag-less AphAEc (AphA of E. coli after removal of the N-terminal His6-SUMO tag by Ulp1) (enzyme)
chain: SPSPLNPGTNVARLAEQAPIHWVSVAQIENSLAGRPPMAVGFDIDDTVLFSSPGFWRGKKTFSPESEDYLKNPVFWEKMNNGWDEFSIPKEVARQLIDMHVRRGDAIFFVTGRSPTKTETVSKTLADNFHIPATNMNPVIFAGDKPGQNTKSQWLQDKNIRIFYGDSDNDITAARDVGARGIRILRASNSTYKPLPQAGAFGEEVIVNSEY
notes: AphA, non-specific periplasmic acid phosphatase of E. coli; protein of around 25 kDa after cleavage; The linker between SUMO and AphA was removed by mutagenesis; also called cleaved tag-less AphAEc; source: E. coli, purified as His6-SUMO-AphAEc, tag cleaved off with His6-Ulp1, size exclusion chromatography; not shown: His6-SUMO, N-terminal, cleaved

Target: the molecule itself
Test: SEC; purified protein on a Superdex 200 Increase 10/300 GL column; size read against standard proteins

Protein | stoichiometry N
B1 | 2
B2 | 4
B3 | 4
